Data published in patent EP4790071A2 (Akeso Biopharma, Inc., dated 2026).

Biological target: T1, human NT5E-Biotin (for NT5E, GenbankID: NP_002517.1, position: 1-552) (human, UniProt P21589 27-552, biotin label, site not stated)
T1 construct: range 1-552; Positions 1-552 as printed include the signal peptide; No cleavage site is stated; also called HNT5E-Biotin; antigen human NT5E-Biotin
T1 sequence (looked up): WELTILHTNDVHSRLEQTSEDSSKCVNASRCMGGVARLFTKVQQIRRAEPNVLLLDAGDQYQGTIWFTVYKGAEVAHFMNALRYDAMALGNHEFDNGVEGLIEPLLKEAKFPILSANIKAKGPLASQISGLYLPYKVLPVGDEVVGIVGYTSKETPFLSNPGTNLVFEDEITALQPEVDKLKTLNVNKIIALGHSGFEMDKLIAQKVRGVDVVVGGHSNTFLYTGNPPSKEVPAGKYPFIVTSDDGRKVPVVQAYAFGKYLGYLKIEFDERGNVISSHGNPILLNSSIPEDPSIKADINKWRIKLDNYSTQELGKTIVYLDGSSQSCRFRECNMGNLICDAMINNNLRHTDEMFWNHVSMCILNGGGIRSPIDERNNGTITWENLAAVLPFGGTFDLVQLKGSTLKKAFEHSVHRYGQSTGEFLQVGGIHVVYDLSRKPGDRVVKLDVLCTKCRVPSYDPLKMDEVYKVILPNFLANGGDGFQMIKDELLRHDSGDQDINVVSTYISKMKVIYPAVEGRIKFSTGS
Experiment: ELISA, NT5E-Biotin on streptavidin plate

B1: murine anti-CD73 monoclonal antibody 19F3 (antibody, V domains shown)
VH: EVQLQQSGPELVKPGASMRMSCKASGYSFTGYTMNWVKQSHGKNLEWIGLINPYNAGTSYNQKFKGKATLTVDKSSSTAYMELLSLTSEDSAVYYCARSEYRYGGDYFDYWGQGTTLTVSS
VL: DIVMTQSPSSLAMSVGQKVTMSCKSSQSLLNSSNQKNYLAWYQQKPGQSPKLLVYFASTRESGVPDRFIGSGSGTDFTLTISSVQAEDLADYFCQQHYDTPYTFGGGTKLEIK
notes: also called murine antibody 19F3
EC50: 0.018 nM
